The record followed here is patent EP3075390A1 (Immunomedics Inc., dated 2016).

Experiment [1] has as its target IGF-1R on human cancer cell lines (human) (UniProt P08069). Briefly: 125I-IGF-1 binding to MCF-7L cells with antibody at 100 ng/mL.
For experiment [2] the target is unchanged. Put plainly: 125I-IGF-1 binding to MCF-7L cells with antibody at 1000 ng/mL.
For experiment [3], the target named is T1, recombinant human IGF-1R (rhIGF-1R) (human, UniProt P08069 31-935).
T1 construct: extracellular domain; also called immobilized recombinant human IGF-1R; IGF-1R-coated beads
T1 sequence (P08069 31-935): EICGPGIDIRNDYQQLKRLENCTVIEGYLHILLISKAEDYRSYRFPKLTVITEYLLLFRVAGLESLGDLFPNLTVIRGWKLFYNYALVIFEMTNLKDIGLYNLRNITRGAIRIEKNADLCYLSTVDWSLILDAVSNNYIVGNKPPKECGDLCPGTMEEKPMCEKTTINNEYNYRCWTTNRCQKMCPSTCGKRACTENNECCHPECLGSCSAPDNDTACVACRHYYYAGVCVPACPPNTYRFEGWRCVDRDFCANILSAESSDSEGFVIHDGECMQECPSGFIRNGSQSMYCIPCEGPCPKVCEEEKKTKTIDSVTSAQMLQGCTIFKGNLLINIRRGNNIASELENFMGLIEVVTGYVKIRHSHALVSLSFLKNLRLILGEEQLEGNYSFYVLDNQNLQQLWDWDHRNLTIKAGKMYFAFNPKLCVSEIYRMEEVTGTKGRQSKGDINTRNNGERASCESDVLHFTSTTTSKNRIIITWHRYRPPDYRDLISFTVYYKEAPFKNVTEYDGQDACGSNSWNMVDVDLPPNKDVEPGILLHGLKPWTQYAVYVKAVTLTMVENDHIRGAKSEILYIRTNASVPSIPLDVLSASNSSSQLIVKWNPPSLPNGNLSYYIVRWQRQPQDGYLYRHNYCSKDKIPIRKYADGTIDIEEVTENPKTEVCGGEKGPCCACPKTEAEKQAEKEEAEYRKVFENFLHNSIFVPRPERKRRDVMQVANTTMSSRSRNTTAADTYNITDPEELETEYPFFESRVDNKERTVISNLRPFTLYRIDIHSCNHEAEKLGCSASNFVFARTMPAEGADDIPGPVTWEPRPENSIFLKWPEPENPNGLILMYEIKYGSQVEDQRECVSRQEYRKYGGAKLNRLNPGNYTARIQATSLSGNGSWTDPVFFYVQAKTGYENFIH
Put plainly: labeled antibody on rhIGF-1R-coated beads; competitor: unlabeled R1.

For experiment [4], the target named is T1, recombinant human IGF-1R (rhIGF-1R). Briefly: labeled antibody on rhIGF-1R-coated beads; competitor: unlabeled MAB391.
Experiment [5] deals with IGF-1R and EGP-1 together on MCF-7, DU-145 or ME-180 cells. Put plainly: flow cytometry (FACScan) on MCF-7 cells; control antibody.
For experiment [6] the target is unchanged. Briefly: flow cytometry (FACScan) on DU-145 cells; control antibody.
Experiment [7] shares this target. Put plainly: flow cytometry (FACScan) on ME-180 cells; control antibody.
Experiment [8] has the same target. Put plainly: flow cytometry (FACScan) on MCF-7 cells; structural control construct.
Experiment [9] has as its target EGP-1 (UniProt P09758). Briefly: flow cytometry (FACScan) on MCF-7 cells.
Experiment [10] concerns the target EGP-1 (UniProt P09758). Briefly: flow cytometry (FACScan) on DU-145 cells.
Experiment [11] concerns the target EGP-1 (UniProt P09758). Briefly: flow cytometry (FACScan) on ME-180 cells.
In experiment [12] the target is T1, recombinant human IGF-1R (rhIGF-1R). Put plainly: labeled antibody on rhIGF-1R-coated beads; competitor: unlabeled 1-2.
For experiment [13] the target is unchanged. Briefly: labeled antibody on rhIGF-1R-coated beads; competitor: unlabeled 1H7.
For experiment [14] the target is unchanged. Briefly: labeled antibody on rhIGF-1R-coated beads; competitor: unlabeled 2C8.
For experiment [15] the target is unchanged. Put plainly: labeled antibody on rhIGF-1R-coated beads; competitor: unlabeled 3B7.
Experiment [16] shares this target. Put plainly: labeled antibody on rhIGF-1R-coated beads; competitor: unlabeled cR1.
Experiment [17] has the same target. Briefly: labeled antibody on rhIGF-1R-coated beads; competitor: unlabeled hR1.
For experiment [18] the target is unchanged. Put plainly: labeled antibody on rhIGF-1R-coated beads; competitor: unlabeled 17-69.
The target is the same in experiment [19]. Briefly: labeled antibody on rhIGF-1R-coated beads; competitor: unlabeled 24-31.
Experiment [20] shares this target. Briefly: labeled antibody on rhIGF-1R-coated beads; competitor: unlabeled 24-57.
The target is the same in experiment [21]. Put plainly: labeled antibody on rhIGF-1R-coated beads; competitor: unlabeled 24-60.
The target is the same in experiment [22]. Put plainly: labeled antibody on rhIGF-1R-coated beads; competitor: unlabeled αIR-3.
Experiment [23] addresses IGF-1R on human cancer cell lines (human) (UniProt P08069). Briefly: flow cytometry (FACScan) on MCF-7 cells.
The target is the same in experiment [24]. Put plainly: flow cytometry (FACScan) on DU-145 cells.
Experiment [25] shares this target. Put plainly: flow cytometry (FACScan) on ME-180 cells.
In experiment [26] the target is T2, recombinant human insulin receptor (rhIR) (human, UniProt P06213-2 28-944, limits assumed).
T2 construct: also called recombinant human IR
T2 sequence (P06213 other isoform, or with tags, fused parts or gaps limits assumed): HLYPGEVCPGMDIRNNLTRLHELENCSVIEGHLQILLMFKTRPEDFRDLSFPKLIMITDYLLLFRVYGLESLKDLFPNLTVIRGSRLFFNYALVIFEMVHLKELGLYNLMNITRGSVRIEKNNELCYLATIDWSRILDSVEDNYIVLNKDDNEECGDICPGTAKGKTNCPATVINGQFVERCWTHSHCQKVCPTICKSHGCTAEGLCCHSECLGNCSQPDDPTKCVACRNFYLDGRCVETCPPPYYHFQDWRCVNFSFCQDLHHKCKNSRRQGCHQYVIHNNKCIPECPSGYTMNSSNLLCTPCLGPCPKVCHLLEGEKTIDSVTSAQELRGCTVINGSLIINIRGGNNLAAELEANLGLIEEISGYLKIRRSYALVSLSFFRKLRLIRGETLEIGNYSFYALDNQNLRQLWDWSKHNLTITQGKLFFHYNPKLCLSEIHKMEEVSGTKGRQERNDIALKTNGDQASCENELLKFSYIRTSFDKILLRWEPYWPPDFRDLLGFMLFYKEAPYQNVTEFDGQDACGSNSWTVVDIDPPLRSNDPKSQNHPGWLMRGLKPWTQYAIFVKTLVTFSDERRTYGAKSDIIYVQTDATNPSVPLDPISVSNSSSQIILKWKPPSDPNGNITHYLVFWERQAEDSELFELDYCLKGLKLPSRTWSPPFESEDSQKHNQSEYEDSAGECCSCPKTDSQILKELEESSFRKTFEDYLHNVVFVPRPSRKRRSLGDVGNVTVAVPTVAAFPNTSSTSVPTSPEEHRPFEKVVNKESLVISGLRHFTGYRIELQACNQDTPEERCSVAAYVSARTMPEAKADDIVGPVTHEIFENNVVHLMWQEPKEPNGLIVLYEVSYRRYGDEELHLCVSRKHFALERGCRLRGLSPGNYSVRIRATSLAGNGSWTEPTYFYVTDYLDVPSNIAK
Put plainly: hybridoma screening, assay not described.

Experiment [27] addresses T1, recombinant human IGF-1R (rhIGF-1R). Briefly: PE-tagged MAB391 on IGF-1R-coated beads with R1 at 100 µg/mL.
The target in experiment [28] is T2, recombinant human insulin receptor …. Briefly: ELISA on immobilized rhIR.
In experiment [29] the target is T1, recombinant human IGF-1R (rhIGF-1R). Briefly: ELISA on immobilized rhIGF-1R (FIG. 3).

Sequence of IGF-1R on human cancer cell lines (human) (P08069 31-1367): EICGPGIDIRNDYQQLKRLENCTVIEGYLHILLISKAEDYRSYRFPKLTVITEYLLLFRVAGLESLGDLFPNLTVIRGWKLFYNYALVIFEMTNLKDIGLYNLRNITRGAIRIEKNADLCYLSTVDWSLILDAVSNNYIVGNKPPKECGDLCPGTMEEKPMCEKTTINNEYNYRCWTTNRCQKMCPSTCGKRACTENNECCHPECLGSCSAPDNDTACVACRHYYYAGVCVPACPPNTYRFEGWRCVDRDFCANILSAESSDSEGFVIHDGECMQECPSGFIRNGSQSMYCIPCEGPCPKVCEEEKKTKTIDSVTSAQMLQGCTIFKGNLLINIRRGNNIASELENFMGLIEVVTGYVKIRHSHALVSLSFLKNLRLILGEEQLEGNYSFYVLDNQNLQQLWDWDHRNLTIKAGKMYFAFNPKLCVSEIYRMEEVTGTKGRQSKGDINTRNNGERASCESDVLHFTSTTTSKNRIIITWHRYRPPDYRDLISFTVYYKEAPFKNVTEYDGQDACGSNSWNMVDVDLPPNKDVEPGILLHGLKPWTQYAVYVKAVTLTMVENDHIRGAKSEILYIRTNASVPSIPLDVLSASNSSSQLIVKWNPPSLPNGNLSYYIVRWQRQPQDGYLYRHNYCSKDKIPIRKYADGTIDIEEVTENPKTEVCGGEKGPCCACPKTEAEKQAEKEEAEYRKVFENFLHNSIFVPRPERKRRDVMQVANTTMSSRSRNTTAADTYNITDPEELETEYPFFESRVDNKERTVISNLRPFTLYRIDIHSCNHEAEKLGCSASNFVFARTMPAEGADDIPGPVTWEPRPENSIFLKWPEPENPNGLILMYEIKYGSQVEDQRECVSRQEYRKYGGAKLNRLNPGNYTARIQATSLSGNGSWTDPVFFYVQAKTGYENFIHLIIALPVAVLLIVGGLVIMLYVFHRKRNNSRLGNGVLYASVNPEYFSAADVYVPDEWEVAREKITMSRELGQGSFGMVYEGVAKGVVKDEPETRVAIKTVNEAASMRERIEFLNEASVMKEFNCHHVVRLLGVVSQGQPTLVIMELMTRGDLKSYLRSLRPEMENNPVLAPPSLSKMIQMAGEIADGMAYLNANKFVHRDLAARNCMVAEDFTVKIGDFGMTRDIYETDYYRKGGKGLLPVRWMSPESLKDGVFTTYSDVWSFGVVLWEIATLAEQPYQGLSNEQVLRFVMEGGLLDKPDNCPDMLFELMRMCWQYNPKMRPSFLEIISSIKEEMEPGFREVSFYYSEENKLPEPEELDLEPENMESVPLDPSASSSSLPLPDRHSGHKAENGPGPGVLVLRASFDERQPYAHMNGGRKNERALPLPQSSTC
Sequence of EGP-1 (P09758 27-323): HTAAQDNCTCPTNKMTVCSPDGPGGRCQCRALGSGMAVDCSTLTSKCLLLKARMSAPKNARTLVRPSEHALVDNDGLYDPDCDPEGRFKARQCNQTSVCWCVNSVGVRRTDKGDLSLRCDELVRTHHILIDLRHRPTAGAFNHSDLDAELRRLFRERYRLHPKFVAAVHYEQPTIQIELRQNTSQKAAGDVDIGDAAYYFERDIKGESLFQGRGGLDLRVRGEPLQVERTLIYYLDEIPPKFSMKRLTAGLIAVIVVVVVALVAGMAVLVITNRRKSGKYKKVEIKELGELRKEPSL

With “mouse anti-IGF-1R monoclonal antibody MAB391”, the % binding of 125I-IGF-1 in [1] came to 54%; in experiment [2], 38%. Moreover, the figures for the % binding of labeled antibody in experiment [3] and in experiment [4] were 40% and 0%, respectively.

In the case of human IgG (control) (antibody), the % Positive in [5] is 2.34%; in experiment [6], 1.44%; in experiment [7] it was 1.37%. Also, the MFI in [5] was 1.84; in experiment [6] it was 2.21; in experiment [7], 1.8.

For “22-20 (DNL construct of hLL2 IgG-AD2 and hA20 Fab-DDD2) (bispecific antibody)”, in [8], the % Positive was found to be 3.1% and the MFI worked out at 2.11.

Turning to “Hex-hRS7 (hexavalent DNL construct of hRS7 IgG-AD2 and hRS7 Fab-DDD2)”, the % Positive came to 99.9% with EGP-1 [9], 93.7% with EGP-1 [10] and 100% in the experiment with EGP-1 [11]. For the same molecule, the MFI was determined as 35.7 with EGP-1 [9], 17 with EGP-1 [10] and 59.6 with EGP-1 [11].

anti-IGF-1R antibody 24-60: the % binding of labeled antibody in experiment [3] was determined as 0%; in [12] it was 100%; in experiment [13], 100%; in experiment [14], 88%; in [15], 79%; in experiment [16], 0%. Further, the % binding of labeled antibody is 0% in [17]; 82% in experiment [18]; 18% in experiment [19]; 88% in experiment [20]; 0% in experiment [21]; 21% in experiment [22]. Also, the % binding of labeled antibody in experiment [4] was found to be 0%.

As to anti-IGF-1R antibody αIR-3, the % binding of labeled antibody came out at 86% in [3]; 95% in [12]; 115% in experiment [13]; 97% in [14]; 76% in experiment [15]; 97% in experiment [16]. Further, the % binding of labeled antibody stood at 107% in experiment [17]; 89% in experiment [18]; 52% in [19]; 87% in [20]; 0% in experiment [21]; 0% in experiment [22]. Further, the % binding of labeled antibody in experiment [4] was 0%.

B1: humanized R1 antibody (hR1) (antibody, V domains shown)
VH: QVQLQESGGGVVQPGRSLRLSCSASGFTFSDYYMYWVRQAPGKGLEWVAYITNYGGSTYYPDTVKGRFTISRDNAKNTLFLQMDSLRPEDTGVYFCARQSNYDYDGWFAYWGQGTPVTVSS
VL: DIQLTQSPSSLSASVGDRVTITCKASQEVGTAVAWYQQKPGKAPKLLIYWASTRHTGVPSRFSGSGSGTDFTFTISSLQPEDIATYFCQQYSNYPLTFGQGTKVEIKR
With B1, the % Positive in experiment [23] turned out to be 89.2%; in experiment [24] it was 30.4%; in experiment [25], 10.7%. The MFI in experiment [23] was determined as 9.93; in experiment [24], 5.33; in experiment [25], 3.65. Also, the % binding of labeled antibody in [3] was 0%; in experiment [12], 100%; in experiment [13], 131%; in experiment [14], 100%; in [15] it was 100%; in experiment [16] it was 0%. Moreover, the % binding of labeled antibody in experiment [17] is 0%; in [18], 100%; in [19], 100%; in [20] it was 100%; in experiment [21], 71%; in experiment [22], 136%. The % binding of labeled antibody in experiment [4] turned out to be 121%.

B2: murine anti-IGF-1R antibody R1 (antibody, V domains shown)
VH: EVKLVESGGGLVQPGGSLKLSCATSGFTFSDYYMYWVRQTPEKRLEWVAYITNYGGSTYYPDTVKGRFTISRDNAKNTLYLQMSRLRSEDTAMYFCARQSNYDYDGWFAYWGQGTTVTVSS
VL: DIVMTQSHKFMSTSVGDRVSITCKASQEVGTAVAWYQQKPGQSPKLLIYWASTRHTGVPDRFTGSGSGTDFTLTISNVQSEDLADYFCQQYSNYPLTFGAGAKLELKR
notes: also called ML04R1; murine R1
As to B2, the binding result in [26] is recorded as “no binding”. Moreover, the % binding of 125I-IGF-1 in [1] was 71%; in experiment [2] it was 58%. For the same molecule, in experiment [27], the % inhibition of the binding of PE-tagged MAB391 lay in the range of 50 to 60%. Moreover, the % binding of labeled antibody in experiment [3] came out at 0%; in [13], 150%; in [15] it was 117%; in [16] it was 0%; in experiment [17] it was 0%; in experiment [21] it was 43%. The % binding of labeled antibody in experiment [22] stood at 143%.

B3: chimeric R1 antibody (cR1) (antibody, V domains shown)
VH: EVKLVESGGGLVQPGGSLKLSCATSGFTFSDYYMYWVRQTPEKRLEWVAYITNYGGSTYYPDTVKGRFTISRDNAKNTLYLQMSRLRSEDTAMYFCARQSNYDYDGWFAYWGQGTTVTVSS
VL: DIVMTQSHKFMSTSVGDRVSITCKASQEVGTAVAWYQQKPGQSPKLLIYWASTRHTGVPDRFTGSGSGTDFTLTISNVQSEDLADYFCQQYSNYPLTFGAGAKLELKR
notes: Mouse-human chimeric mAb of R1, R1 VH and VK in the pdHL2 vector with human constant regions; also called clones 709.2D2 and 710.2G2
As to B3, the binding result in [28] was “no binding”. The Kd in experiment [29] was roughly 0.1 nM.
